From patent US20100172907A1 (Hoffmann-La Roche, published 2010)
Like-named read-outs stand apart in the source and are kept apart here. Groups on a side chain read outwards from the residue. No end group written: not given here. NSMP = not defined here

Columns and labels:
[1] = target: T1, human Aβ (1-40) peptide (human); assay: SPR, immobilized fibers
T1 construct: also called Aβ1-40 fibers

[2] = target: T2, BSA-conjugated Aβ heptapeptide FFAEDVC (C-terminal Cys coupled to NSMP-activated BSA); assay: ELISA
T2 construct: also called Peptide 19-24
T2 peptide: FFAEDVC
Method: (§1) 50 μl of NSMP activated BSA (6.7 mg/ml) was diluted with 50 μl of PBS, 0.1% sodium azide and 10 μl of peptide solution (1 mM in DMSO) was added. As negative control activated BSA was mock-treated without peptide addition. After 4 hrs at room temperature the reaction was stopped by addition of 10 μl of 10 mM Cystein. An aliquot of the conjugate reaction mixture was diluted 1:100 with 0.1M sodium bicarbonate buffer and immediately filled into the wells (100 μl) of ELISA plates (Nunc Immuno-Plate). After standing 16 hrs at 4° C. 100 μl blocking buffer (as above) was added to each well and incubated for another 30 minutes. The plates were washed with 2×300 μl/well TBST (as above) and filled with 100 μl antibody at 10 μg/ml or 2 μg/ml in blocking buffer. The plates were kept 16 hours at 4° C. and washed with 2×300 μl TBST. 100 μl/well HRP-conjugated anti-human Ig H+L (Pierce, dilution 1:1000 with blocking buffer) was added and incubated for 1 hour at ambient temperature. The plates were washed with 3×300 μl/well TBST. Colour development was started by addition of 100 μl tetra-methyl benzidine/hydrogen peroxide reagent.

[3] = target: T3, BSA-conjugated Aβ heptapeptide AEFRHDC (C-terminal Cys coupled to NSMP-activated BSA); assay: ELISA
T3 construct: also called Peptide 2-7
T3 peptide: AEFRHDC
Method: as §1

[4] = target: T4, BSA-conjugated Aβ heptapeptide VFFAEDC (C-terminal Cys coupled to NSMP-activated BSA); assay: ELISA
T4 construct: also called Peptide 18-23
T4 peptide: VFFAEDC
Method: as §1

[5] = target: T5, BSA-conjugated Aβ heptapeptide LVFFAEC (reading uncertain; also: BSA conjugate); assay: ELISA
T5 construct: also called Peptide 17-22
T5 peptide: LVFFAEC([NSMP-BSA])
Method: as §1

[6] = target: T6, Aβ (1-42) peptide (human); assay: SPR, immobilized fibers
T6 construct: also called Aβ1-42 fibers; Aβ4

[7] = target: T1, human Aβ (1-40) peptide; assay: SPR, immobilized fibers; remark: listed apart in the source
[8] = target: T2, BSA-conjugated Aβ heptapeptide FFAEDVC; assay: ELISA
Method: as §1

[9] = target: T3, BSA-conjugated Aβ heptapeptide AEFRHDC; assay: ELISA
Method: as §1

[10] = target: T4, BSA-conjugated Aβ heptapeptide VFFAEDC; assay: ELISA
Method: as §1

[11] = target: T5, BSA-conjugated Aβ heptapeptide LVFFAEC; assay: ELISA
Method: as §1

[12] = target: T6, Aβ (1-42) peptide; assay: SPR, immobilized fibers; remark: listed apart in the source
Method: (§2) Biacore2000 and Biacore3000 instruments were used for these measurements. Aβ1-40 and Aβ1-42 fibers were generated in vitro by incubation of synthetic peptides at a concentration of 200 μg/ml in 10 mM Na-acetate buffer (pH 4.0) for three days at 37° C. […] For binders with slow kinetics KD values were calculated by curve fitting of the time-dependent sensor responses, i.e. from the ratio of koff/kₒₙ. Binders with fast kinetics were analyzed by fitting the concentration-dependent sensor responses at equilibrium (adsorption-isotherms). KD values were calculated from the Biacore sensograms based on the total Fab concentration as determined by a protein assay. […] Briefly, time-dependent protein binding to Aβ1-40 fibers immobilized on the Biacore chip was measured during the association phase under mass-limited conditions at different flow rates of the analyte solution.

[13] = target: T1, human Aβ (1-40) peptide; assay: SPR, immobilized fibers; remark: listed apart in the source
Method: as §2

[14] = target: T6, Aβ (1-42) peptide; assay: SPR, immobilized fibers; remark: listed apart in the source
Method: as §2

[15] = target: T1, human Aβ (1-40) peptide; assay: SPR, immobilized fibers; remark: listed apart in the source
Method: as §2

[16] = target: T6, Aβ (1-42) peptide; assay: SPR, immobilized fibers, equilibrium responses
Method: as §2

[17] = target: T1, human Aβ (1-40) peptide; assay: SPR, immobilized fibers, equilibrium responses
Method: as §2

B1: MS-Roche #7.9 Fab (Fab, V domains shown)
VH: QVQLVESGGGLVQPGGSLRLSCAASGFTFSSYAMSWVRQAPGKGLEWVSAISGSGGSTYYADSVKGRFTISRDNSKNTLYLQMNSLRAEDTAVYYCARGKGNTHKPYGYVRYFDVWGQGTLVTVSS
VL: DIVLTQSPATLSLSPGERATLSCRASQSVSSSYLAWYQQKPGQAPRLLIYGASSRATGVPARFSGSGSGTDFTLTISSLEPEDFATYYCLQIYNMPITFGQGTKVEIKR
notes: VL entry is that of the H-CDR2 derivative 7.9H7
For B1, the “fold improvement of affinity over the MS-Roche-7 parental Fab” value [1] was > 35 fold, the “OD ratio 19-24/BSA” value [2] was 8 and the “Peptide-ratio 19-24/2-7” value [2] was 0.29. For the same binder, the “OD ratio 2-7/BSA” value [3] was 28, the “OD ratio 18-23/BSA” value [4] was 13 and the “Peptide-ratio 18-23/2-7” value [4] was 0.46. The “OD ratio 17-22/BSA” value [5] was 9, the “Peptide-ratio 17-22/2-7” value [5] was 0.32 and the Kd [6] was 93 nM. The Kd [7] was 31 nM.

B2: MS-R #7.12 IgG1 (antibody, V domains shown)
VH: QVELVESGGGLVQPGGSLRLSCAASGFTFSSYGMSWVRQAPGKGLEWVSNISGSGSSTYYADSVKGRFTISRDNSKNTLYLQMNSLRAEDTAVYYCARGKGNTHKPYGYVRYFDVWGQGTLVTVSS
VL: DIVLTQSPATLSLSPGERATLSCRASQYVSSPYLAWYQQKPGQAPRLLISGSSNRATGVPARFSGSGSGTDFTLTISSLEPEDFAVYYCLQLYNIPNTFGQGTKVEIKR
notes: full-length human IgG1
B2 was tested, and the “OD ratio 19-24/BSA” value [8] was 11, the “Peptide-ratio 19-24/2-7” value [8] was 0.58 and the “OD ratio 2-7/BSA” value [9] was 19. The “OD ratio 18-23/BSA” value [10] was 13, the “Peptide-ratio 18-23/2-7” value [10] was 0.68 and the “OD ratio 17-22/BSA” value [11] was 11. For the same binder, the “Peptide-ratio 17-22/2-7” value [11] was 0.58, the Kd [12] was 13.7 nM and the Kd [13] was 3.1 nM. For the same binder, the Kd [14] was 13.7 nM and the Kd [15] was 3.1 nM.

B3: MS-Roche #8.2.H1 Fab (Fab, V domains shown)
VH: QVQLVESGGGLVQPGGSLRLSCAASGFTFSSYAMSWVRQAPGKGLEWVSAISITGRRKYYADSVKGRFTISRDNSKNTLYLQMNSLRAEDTAVYYCARLLSRGYNGYYHKFDVWGQGTLVTVSS
VL: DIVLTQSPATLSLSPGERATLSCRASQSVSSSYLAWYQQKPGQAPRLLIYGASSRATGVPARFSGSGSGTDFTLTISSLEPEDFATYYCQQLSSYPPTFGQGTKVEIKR
In the case of B3, the “OD ratio 19-24/BSA” value [2] is reported as 20, the “Peptide-ratio 19-24/2-7” value [2] is reported as 0.94 and the “OD ratio 2-7/BSA” value [3] is reported as 22. The “OD ratio 18-23/BSA” value [4] was 23, the “Peptide-ratio 18-23/2-7” value [4] was 1.05 and the “OD ratio 17-22/BSA” value [5] was 7. For the same binder, the “Peptide-ratio 17-22/2-7” value [5] was 0.34, the Kd [16] was 2.1 nM and the Kd [17] was 1.6 nM.
